Assays:
human CD33 F117A = human CD33 F117A (human, UniProt P20138 18-364); experiment: flow cytometry on HEK293-T, alanine scan
Protocol: (§1) An alanine scan on human CD33 was performed to the determine the residues on CD33 that are involved in binding to the antibodies investigated. […] Briefly, a mutation library of CD33 was created by high-throughput, site-directed mutagenesis. Each residue was individually mutated to alanine, with alanine codons mutated to serine. The mutant library was arrayed in 384-well microplates and transiently transfected into HEK293-T. Following transfection, cells were incubated with the indicated antibodies (IgG or Fab) at concentrations pre-determined using an independent immunofluorescence titration curve on wild type CD33. […] Binding of each antibody to each mutant clone was determined in duplicates. For each point, background fluorescence was subtracted from the raw data, which were then normalized to antibody reactivity with wild type CD33.
(§2) Critical residues for antibody binding (outlined in dark grey) were residues whose mutations led to a binding of the test Abs of less than 20%. Additional secondary residues (outlined in light grey) were identified that led to a binding of the test Abs of between 20 and 40% as compared to the wild type CD33.

human CD33 H137A = human CD33 H137A (human, UniProt P20138 18-364); experiment: flow cytometry on HEK293-T, alanine scan
Protocol: as §1, §2

human CD33 C163A = human CD33 C163A (human, UniProt P20138 18-364); experiment: flow cytometry on HEK293-T, alanine scan
Protocol: as §1, §2

human CD33 S164A = human CD33 S164A (human, UniProt P20138 18-364); experiment: flow cytometry on HEK293-T, alanine scan
Protocol: as §1, §2

human CD33 Q251A = human CD33 Q251A (human, UniProt P20138 18-364); experiment: alanine scan, flow cytometry, HEK293-T;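 also: antibody binding to each alanine-substituted CD33 mutant expressed transiently in HEK293-T, read as fluorescence minus background, mean of duplicates, relative to wild-type CD33 set as 100%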
human CD33 E252A = human CD33 E252A (human, UniProt P20138 18-364); experiment: alanine scan, flow cytometry, HEK293-T;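 also: antibody binding to each alanine-substituted CD33 mutant expressed transiently in HEK293-T, read as fluorescence minus background, mean of duplicates, relative to wild-type CD33 set as 100%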
human CD33 G263A = human CD33 G263A (human, UniProt P20138 18-364); experiment: alanine scan, flow cytometry, HEK293-T;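 also: antibody binding to each alanine-substituted CD33 mutant expressed transiently in HEK293-T, read as fluorescence minus background, mean of duplicates, relative to wild-type CD33 set as 100%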
human CD33 G264A = human CD33 G264A (human, UniProt P20138 18-364); experiment: alanine scan, flow cytometry, HEK293-T;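 also: antibody binding to each alanine-substituted CD33 mutant expressed transiently in HEK293-T, read as fluorescence minus background, mean of duplicates, relative to wild-type CD33 set as 100%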
human CD33 L271A = human CD33 L271A (human, UniProt P20138 18-364); experiment: alanine scan, flow cytometry, HEK293-T
human CD33 A272S = human CD33 A272S (human, UniProt P20138 18-364); experiment: alanine scan, flow cytometry, HEK293-T
human CD33 C274A = human CD33 C274A (human, UniProt P20138 18-364); experiment: alanine scan, flow cytometry, HEK293-T
human CD33 C276A = human CD33 C276A (human, UniProt P20138 18-364); experiment: alanine scan, flow cytometry, HEK293-T
human CD33 V282A = human CD33 V282A (human, UniProt P20138 18-364); experiment: alanine scan, flow cytometry, HEK293-T
human CD33 K288A = human CD33 K288A (human, UniProt P20138 18-364); experiment: alanine scan, flow cytometry, HEK293-T
human CD33 V294A = human CD33 V294A (human, UniProt P20138 18-364); experiment: alanine scan, flow cytometry, HEK293-T
human CD33 G295A = human CD33 G295A (human, UniProt P20138 18-364); experiment: alanine scan, flow cytometry, HEK293-T
human CD33 R296A = human CD33 R296A (human, UniProt P20138 18-364); experiment: alanine scan, flow cytometry, HEK293-T
human CD33 P244A = human CD33 P244A (human, UniProt P20138 18-364); experiment: alanine scan, flow cytometry, HEK293-T
human CD33 K309A = human CD33 K309A (human, UniProt P20138 18-364); experiment: alanine scan, flow cytometry, HEK293-T
human CD33 S314A = human CD33 S314A (human, UniProt P20138 18-364); experiment: alanine scan, flow cytometry, HEK293-T
human CD33 L316A = human CD33 L316A (human, UniProt P20138 18-364); experiment: alanine scan, flow cytometry, HEK293-T
human CD33 H317A = human CD33 H317A (human, UniProt P20138 18-364); experiment: alanine scan, flow cytometry, HEK293-T
human CD33 G247A = human CD33 G247A (human, UniProt P20138 18-364); experiment: alanine scan, flow cytometry, HEK293-T
Sequence of human CD33 G247A (P20138 18-364 G247A limits assumed): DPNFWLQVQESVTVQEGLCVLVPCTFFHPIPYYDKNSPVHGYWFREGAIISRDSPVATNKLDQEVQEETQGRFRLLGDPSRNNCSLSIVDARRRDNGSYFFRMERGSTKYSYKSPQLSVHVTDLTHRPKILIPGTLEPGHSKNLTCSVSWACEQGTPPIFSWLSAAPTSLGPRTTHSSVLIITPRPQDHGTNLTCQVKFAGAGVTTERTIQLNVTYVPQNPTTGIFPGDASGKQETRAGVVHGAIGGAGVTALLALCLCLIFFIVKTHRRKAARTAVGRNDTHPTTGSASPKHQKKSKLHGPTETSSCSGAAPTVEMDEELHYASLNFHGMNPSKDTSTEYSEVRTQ

Sequence of human CD33 C163A (P20138 18-364 C163A limits assumed): as the sequence (P20138 18-364 G247A limits assumed) above, with C146A, A230G counted along it
Sequence of human CD33 H137A (P20138 18-364 H137A limits assumed): as the sequence (P20138 18-364 G247A limits assumed) above, with H120A, A230G counted along it
Sequence of human CD33 S164A (P20138 18-364 S164A limits assumed): as the sequence (P20138 18-364 G247A limits assumed) above, with S147A, A230G counted along it
Sequence of human CD33 F117A (P20138 18-364 F117A limits assumed): as the sequence (P20138 18-364 G247A limits assumed) above, with F100A, A230G counted along it
Sequence of human CD33 E252A (P20138 18-364 E252A limits assumed): as the sequence (P20138 18-364 G247A limits assumed) above, with A230G, E235A counted along it
Sequence of human CD33 G264A (P20138 18-364 G264A limits assumed): as the sequence (P20138 18-364 G247A limits assumed) above, with A230G, G247A counted along it
Sequence of human CD33 V282A (P20138 18-364 V282A limits assumed): as the sequence (P20138 18-364 G247A limits assumed) above, with A230G, V265A counted along it
Sequence of human CD33 Q251A (P20138 18-364 Q251A limits assumed): as the sequence (P20138 18-364 G247A limits assumed) above, with A230G, Q234A counted along it
Sequence of human CD33 G263A (P20138 18-364 G263A limits assumed): as the sequence (P20138 18-364 G247A limits assumed) above, with A230G, G246A counted along it
Sequence of human CD33 V294A (P20138 18-364 V294A limits assumed): as the sequence (P20138 18-364 G247A limits assumed) above, with A230G, V277A counted along it
Sequence of human CD33 K309A (P20138 18-364 K309A limits assumed): as the sequence (P20138 18-364 G247A limits assumed) above, with A230G, K292A counted along it
Sequence of human CD33 R296A (P20138 18-364 R296A limits assumed): as the sequence (P20138 18-364 G247A limits assumed) above, with A230G, R279A counted along it
Sequence of human CD33 C276A (P20138 18-364 C276A limits assumed): as the sequence (P20138 18-364 G247A limits assumed) above, with A230G, C259A counted along it
Sequence of human CD33 G295A (P20138 18-364 G295A limits assumed): as the sequence (P20138 18-364 G247A limits assumed) above, with A230G, G278A counted along it
Sequence of human CD33 L271A (P20138 18-364 L271A limits assumed): as the sequence (P20138 18-364 G247A limits assumed) above, with A230G, L254A counted along it
Sequence of human CD33 C274A (P20138 18-364 C274A limits assumed): as the sequence (P20138 18-364 G247A limits assumed) above, with A230G, C257A counted along it
Sequence of human CD33 A272S (P20138 18-364 A272S limits assumed): as the sequence (P20138 18-364 G247A limits assumed) above, with A230G, A255S counted along it
Sequence of human CD33 S314A (P20138 18-364 S314A limits assumed): as the sequence (P20138 18-364 G247A limits assumed) above, with A230G, S297A counted along it
Sequence of human CD33 P244A (P20138 18-364 P244A limits assumed): as the sequence (P20138 18-364 G247A limits assumed) above, with P227A, A230G counted along it
Sequence of human CD33 L316A (P20138 18-364 L316A limits assumed): as the sequence (P20138 18-364 G247A limits assumed) above, with A230G, L299A counted along it
Sequence of human CD33 K288A (P20138 18-364 K288A limits assumed): as the sequence (P20138 18-364 G247A limits assumed) above, with A230G, K271A counted along it
Sequence of human CD33 H317A (P20138 18-364 H317A limits assumed): as the sequence (P20138 18-364 G247A limits assumed) above, with A230G, H300A counted along it

B1: Refmab #1 (antibody, V domains shown)
VH: EVQLVQSGAEVKKPGSSVKVSCKASGYTITDSNIHWVRQAPGQSLEWIGYIYPYNGGTDYNQKFKNRATLTVDNPTNTAYMELSSLRSEDTAFYYCVNGNPWLAYWGQGTLVTVSS
VL: DIQLTQSPSTLSASVGDRVTITCRASESLDNYGIRFLTWFQQKPGKAPKLLMYAASNQGSGVPSRFSGSGSGTEFTLTISSLQPDDFATYYCQQTKEVPWSFGQGTKVEVK
notes: The alanine scan used IgG or Fab; also called hP67.6
Mean % WT Binding (human CD33 F117A): 98.7 % WT binding | Mean % WT Binding (human CD33 H137A): 83.8 % WT binding | Mean % WT Binding (human CD33 C163A): 84.6 % WT binding | Mean % WT Binding (human CD33 S164A): 101 % WT binding

B2: Refmab #2 (antibody, V domains shown)
VH: QVQLVQSGAEVKKPGSSVKVSCKASGGTFSDYAISWVRQAPGQGLEWMGRIIPILGVADYAQKFQGRVTITADKSTRTAYMELSSLRSEDTAVYYCARNWADAFDIWGQGTMVTVSS
VL: DIQLTQSPSSLSASVGDRVTITCRASQGISSVLAWYQQKPGKAPKLLIYDASSLESGVPSRFSGSGSGTDFTLTISSLQPEDFATYYCQQFDSSITFGQGTKLEIK
notes: The alanine scan used IgG or Fab
Mean % WT Binding (human CD33 F117A): 111 % WT binding | Mean % WT Binding (human CD33 H137A): 120 % WT binding | Mean % WT Binding (human CD33 C163A): 97.7 % WT binding | Mean % WT Binding (human CD33 S164A): 117 % WT binding

B3: Refmab #3 (antibody, V domains shown)
VH: QVQLVQSGAEVKKPGSSVKVSCKASGYTFTDYNMHWVRQAPGQGLEWIGYIYPYNGGTGYNQKFKSKATITADESTNTAYMELSSLRSEDTAVYYCARGRPAMDYWGQGTLVTVSS
VL: DIQMTQSPSSLSASVGDRVTITCRASESVDNYGISFMNWFQQKPGKAPKLLIYAASNQGSGVPSRFSGSGSGTDFTLTISSLQPDDFATYYCQQSKEVPWTFGQGTKVEIK
notes: as for B2
Mean % WT Binding (human CD33 F117A): 166 % WT binding | Mean % WT Binding (human CD33 H137A): 100 % WT binding | Mean % WT Binding (human CD33 C163A): 65.7 % WT binding | Mean % WT Binding (human CD33 S164A): 96.3 % WT binding

B4: Refmab #4 (antibody, V domains shown)
VH: QVQLVQSGAEVKKPGESVKVSCKASGYTFTNYGMNWVKQAPGQGLEWMGWINTYTGEPTYADKFQGRVTMTTDTSTSTAYMEIRNLGGDDTAVYYCARWSWSDGYYVYFDYWGQGTSVTVSS
VL: DIVMTQSPDSLTVSLGERTTINCKSSQSVLDSSTNKNSLAWYQQKPGQPPKLLLSWASTRESGIPDRFSGSGSGTDFTLTIDSPQPEDSATYYCQQSAHFPITFGQGTRLEIK
notes: as for B2
Mean % WT Binding (human CD33 F117A): 142 % WT binding | Mean % WT Binding (human CD33 H137A): 108 % WT binding | Mean % WT Binding (human CD33 C163A): 43.3 % WT binding | Mean % WT Binding (human CD33 S164A): 112 % WT binding

B5: Refmab #4 (antibody, V domains shown)
VH: B4 VH
VL: B4 VL
notes: as for B2
Mean % WT Binding (human CD33 Q251A): 97.5 % WT binding | Mean % WT Binding (human CD33 E252A): 115 % WT binding | Mean % WT Binding (human CD33 G263A): 99.9 % WT binding | Mean % WT Binding (human CD33 G264A): 89.9 % WT binding | Mean % WT Binding (human CD33 L271A): 113 % WT binding | Mean % WT Binding (human CD33 A272S): 107 % WT binding | Mean % WT Binding (human CD33 C274A): 103 % WT binding | Mean % WT Binding (human CD33 C276A): 96.9 % WT binding | Mean % WT Binding (human CD33 V282A): 111 % WT binding | Mean % WT Binding (human CD33 K288A): 100 % WT binding | Mean % WT Binding (human CD33 V294A): 97.8 % WT binding | Mean % WT Binding (human CD33 G295A): 107 % WT binding | Mean % WT Binding (human CD33 R296A): 106 % WT binding | Mean % WT Binding (human CD33 P244A): 100 % WT binding | Mean % WT Binding (human CD33 K309A): 99.9 % WT binding | Mean % WT Binding (human CD33 S314A): 95.5 % WT binding | Mean % WT Binding (human CD33 L316A): 80 % WT binding | Mean % WT Binding (human CD33 H317A): 82.6 % WT binding | Mean % WT Binding (human CD33 G247A): 113 % WT binding
